Article PMC9329959, “A Feedback Regulatory Loop Involving dTrbd/dTak1 in Controlling IMD Signaling in Drosophila Melanogaster” (Frontiers in Immunology, 2022)

Target: the molecule itself
Assay: SDD-AGE; purified proteins loaded in 0.5 x TBE, 10% glycerol, 2% SDS at room temperature; 1.5% agarose gel with 0.1% SDS; immunoblot

B1: GST-tagged dTrbd^FL (enzyme, Drosophila melanogaster, UniProt Q9VH90 1-778, looked up)
chain: MCDTKDDAQKWKCETCTYENYPSSLKCTMCQASKPLLNEDIFRLSPAQESCTVAEEAAAVEVAVMSPTPSSTCYSLQPQSQARQSNVADSEKWPCKVCTYLNWPRSLRCVQCCTKRGGEAIERGKKDMDNEADGDRAGEALQALRISGSEENLANKPVQLIGATASHRLSLSRGIDDATHLNNLANASHNQSQSQHRQPVLQQQMQLQLQPQQQRESSSSAAVPPQQQKQCYVSKWACNSCTYENWPRSIKCSMCGKTREREISGSQNDLHASSSLNSQEENQQQLQQPNVDTVSVNNSFNKKHIYQLGSSETINNCDTLQERQERRQRQIRRQVDWQWLNACLGVVENNYSAVEAYLSCGGNPARSLTSTEIAALNRNSAFDVGHTLIHLAIRFHREEMLPMLLDQISGSGPGIKRVPSYVAPDLAADIRRHFANTLRLRKSGLPCHYVQKHATFALPAEIEELPIPIQEQLYDELLDRDAQKQLETPPPALNWSLEITARLSSRMFVLWNRSAGDCLLDSAMQATWGVFDRDNILRRALADTLHQCGHVFFTRWKEYEMLQASMLHFTLEDSQFEEDWSTLLSLAGQPGSSLEQLHIFALAHILRRPIIVYGVKYVKSFRGEDIGYARFEGVYLPLFWDQNFCTKSPIALGYTRGHFSALVPMEPFTRIDGRRDDVEDVTYLPLMDCELKLLPIHFLTQSEVGNEESMMRQWLDVCVTDGGLLVAQQKLSKRPLLVAQMLEEWLNHYRRIAQVITAPFIRRPQITHYSSDGDSDEE
notes: dTrbd, Drosophila deubiquitinase, full length; also called GST-dTrbd^FL; source: E. coli BL21, purified (Glutathione Sepharose 4B)
- binding result: binds
